Target: preformed PER1 1013-1291/WDR5 22-334 complex (mouse, UniProt O35973 1013-1291; P61965 22-334)
Test: SEC; PER1 1013-1291, CRY1 1-496 or CRY2 1-512 and WDR5 22-334: equimolar mixture (60 min, 4 °C) or PER1/WDR5 complex pre-formed overnight and then equimolar CRY added for 60 min; dimeric complexes run for comparison; S200 10/300; 25 mM HEPES pH 7.5, 300 mM NaCl, 5% glycerol, 1 mM DTT
Details: both partners purified

binding result	Binder
binds	mouse CRY1 1-496 (PHR) (domain or fragment, pCoofy27; tag-free after cleavage; also called CRY1-PHR) MGVNAVHWFRKGLRLHDNPALKECIQGADTIRCVYILDPWFAGSSNVGINRWRFLLQCLEDLDANLRKLNSRLFVIRGQPADVFPRLFKEWNITKLSIEYDSEPFGKERDAAIKKLATEAGVEVIVRISHTLYDLDKIIELNGGQPPLTYKRFQTLVSKMEPLEMPADTITSDVIGKCMTPLSDDHDEKYGVPSLEELGFDTDGLSSAVWPGGETEALTRLERHLERKAWVANFERPRMNANSLLASPTGLSPYLRFGCLSCRLFYFKLTDLYKKVKKNSSPPLSLYGQLLWREFFYTAATNNPRFDKMEGNPICVQIPWDKNPEALAKWAEGRTGFPWIDAIMTQLRQEGWIHHLARHAVACFLTRGDLWISWEEGMKVFEELLLDADWSINAGSWMWLSCSSFFQQFFHCYCPVGFGRRTDPNGDYIRRYLPVLRGFPAKYIYDPWNAPEGIQKVAKCLIGVNYPKPMVNHAEASRLNIERMKQIYQQLSRYRG
binds	mouse CRY2-PHR (1-512) (domain or fragment, Cryptochrome-2 (CRY2), mouse, photolyase homology region, residues 1-512; pCoofy27; tag-free after cleavage; also called CRY2 1-512) MAAAAVVAATVPAQSMGADGASSVHWFRKGLRLHDNPALLAAVRGARCVRCVYILDPWFAASSSVGINRWRFLLQSLEDLDTSLRKLNSRLFVVRGQPADVFPRLFKEWGVTRLTFEYDSEPFGKERDAAIMKMAKEAGVEVVTENSHTLYDLDRIIELNGQKPPLTYKRFQALISRMELPKKPAVAVSSQQMESCRAEIQENHDDTYGVPSLEELGFPTEGLGPAVWQGGETEALARLDKHLERKAWVANYERPRMNANSLLASPTGLSPYLRFGCLSCRLFYYRLWDLYKKVKRNSTPPLSLFGQLLWREFFYTAATNNPRFDRMEGNPICIQIPWDRNPEALAKWAEGKTGFPWIDAIMTQLRQEGWIHHLARHAVACFLTRGDLWVSWESGVRVFDELLLDADFSVNAGSWMWLSCSAFFQQFFHCYCPVGFGRRTDPSGDYIRRYLPKLKGFPSRYIYEPWNAPESVQKAAKCIIGVDYPRPIVNHAETSRLNIERMKQIYQQLSRY

— PMC13649712, “Role of PER-WDR5 interactions in the mammalian circadian clock” (Nature Communications, 2026)
